According to US20240041976A1, “COMPOSITION AND USE” (priority 2020, published 2024):

Experiments:
[1] = test system: S. haemolyticus 4068; assay: microbe, parasite or virus in culture; details: 4068; for MIC: individual component
Experimental: (§1) Growth inhibition assays were performed in 96-well microtiter plates as described previously (Chi and Holo, 2018, supra). Briefly, 135 μl of TSB were dispensed in each well of a microtiter plate (according to the number of bacterial strains tested) except in the wells of the first row. The antimicrobials were diluted in TSB to working concentrations in a final volume of 285 μl and dispensed in the wells of the first row. The working concentrations were 100 μg/μl for garvicin KS, 10 μg/μl for micrococcin P1 and 1 mg/ml for penicillin G. From the first row, 150 μl of the antimicrobials were then serially diluted (two-fold dilutions) in a sequential fashion until the last row of the plate. Finally, 15 μl of a fresh O/N culture of each strain were added in the appropriate wells to reach a final volume of 150 μl in each well. The plates were then incubated at 37° C. for 24 h. The growth inhibition was expressed as minimum inhibitory concentration (MIC50), which refers to the minimum concentration of the antimicrobial needed to reduce at least 50% of the microbial growth compared to the untreated control. The MIC50 was assessed by optical density readings at 600 nm (O.D.600).
(§2) Synergistic interactions between antimicrobials were determined using the fractional inhibition concentration (FIC). The FIC values were calculated as follows: the sum of the FIC =FICa+FICb+FICc, where the FICa means MIC of A in combination/MIC of A alone, FICb means MIC of B in combination/MIC of B, and FICc means MIC of C in combination/MIC of C alone. Effects were considered as synergistic if FIC was ≤0.5 for two components mixture and ≤0.75 for three components mixture.
(§3) Bacteriocins and antimicrobial assays. […] These bacteriocins were all solubilized in 0.1% (vol/vol) trifluoracetic acid (TFA; Sigma-Aldrich). […] Cell growth inhibition assays and antimicrobial synergy determination was performed in line with Example 1.
(§4) To investigate whether there was synergy between the three bacteriocins (K1-EJ, GarKS and MP1), a checkboard antimicrobial assay was performed. The selected strains were treated for 5, 24 and 48 h with a range of concentrations of K1-EJ, GarKS and MP1 alone or in different combinations.

[2] = test system: S. haemolyticus 4073; assay: microbe, parasite or virus in culture; details: 4073; for MIC: individual component
Experimental: as §1, §2, §3, §4

[3] = test system: S. haemolyticus 4071; assay: microbe, parasite or virus in culture; details: 4071; for MIC: individual component
Experimental: as §1, §2, §3, §4

[4] = test system: S. haemolyticus 4072; assay: microbe, parasite or virus in culture; details: 4072; for MIC: individual component
Experimental: as §1, §2, §3, §4

[5] = test system: S. haemolyticus 4069; assay: microbe, parasite or virus in culture; details: 4069; for MIC: individual component
Experimental: as §1, §2, §3, §4

[6] = test system: S. aureus ATTC 33591; assay: Planktonic cell growth inhibition assay (MIC50, liquid culture); type: cell-based, Staphylococcus aureus
Experimental: as §1, §2

[7] = test system: S. aureus ATTC 29213; assay: as above; type: cell-based, Staphylococcus aureus
Experimental: as §1, §2

[8] = test system: S. aureus ATTC 10832; assay: as above; type: cell-based, Staphylococcus aureus
Experimental: as §1, §2

[9] = test system: S. aureus USA 300; assay: as above; type: cell-based, Staphylococcus aureus
Experimental: as §1, §2

[10] = test system: S.a. 3255; assay: as above; type: cell-based, Staphylococcus aureus
Experimental: as §1, §2

[11] = test system: S. aureus Newman; assay: as above; type: cell-based, Staphylococcus aureus
Experimental: as §1, §2

[12] = garvicin KS + micrococcin P1 + penicillin G

B1: Garvicin KS: three-peptide leaderless bacteriocin (GarA, GarB, GarC; SEQ ID NO:6-8), peptides synthesized (peptide, listed as Lactococcus garvieae)
chain 1: MGAIIKAGAKIVGKGVLGGGASWLGWNVGEKIWK
chain 2: MGAIIKAGAKIIGKGLLGGAAGGATYGGLKKIFG
chain 3: MGAIIKAGAKIVGKGALTGGGVWLAEKLFGGK
MIC of the component in combination ([1]; 5 h, GarKS + MP1): 0.2 µg/mL | MIC of the component in combination ([1]; 5 h, K1-EJ + GarKS): 0.83 µg/mL | MIC of the component in combination ([1]; 5 h, K1-EJ + GarKS + MP1): 0.32 µg/mL | MIC ([1]; 5 h): 6.5 µg/mL | MIC of the component in combination ([1]; 24 h, GarKS + MP1): 0.32 µg/mL | MIC of the component in combination ([1]; 24 h, K1-EJ + GarKS): 3.1 µg/mL | MIC of the component in combination ([1]; 24 h, K1-EJ + GarKS + MP1): 0.78 µg/mL | MIC ([1]; 24 h): 24 µg/mL | MIC of the component in combination ([1]; 48 h, GarKS + MP1): 0.68 µg/mL | MIC of the component in combination ([1]; 48 h, K1-EJ + GarKS): 6 µg/mL | MIC of the component in combination ([1]; 48 h, K1-EJ + GarKS + MP1): 2.8 µg/mL | MIC ([1]; 48 h): 25 µg/mL | MIC of the component in combination ([2]; 5 h, GarKS + MP1): 0.2 µg/mL | MIC of the component in combination ([2]; 5 h, K1-EJ + GarKS): 1.7 µg/mL | MIC of the component in combination ([2]; 5 h, K1-EJ + GarKS + MP1): 0.33 µg/mL | MIC ([2]; 5 h): 12.5 µg/mL | MIC of the component in combination ([2]; 24 h, GarKS + MP1): 0.73 µg/mL | MIC of the component in combination ([2]; 24 h, K1-EJ + GarKS): 6.3 µg/mL | MIC of the component in combination ([2]; 24 h, K1-EJ + GarKS + MP1): 0.78 µg/mL | MIC ([2]; 24 h): 51 µg/mL | MIC of the component in combination ([2]; 48 h, GarKS + MP1): 0.83 µg/mL | MIC of the component in combination ([2]; 48 h, K1-EJ + GarKS): 12 µg/mL | MIC of the component in combination ([2]; 48 h, K1-EJ + GarKS + MP1): 1.6 µg/mL | MIC ([2]; 48 h): 51 µg/mL | MIC of the component in combination ([3]; 5 h, GarKS + MP1): 0.68 µg/mL | MIC of the component in combination ([3]; 5 h, K1-EJ + GarKS): 1.6 µg/mL | MIC of the component in combination ([3]; 5 h, K1-EJ + GarKS + MP1): 0.72 µg/mL | MIC ([3]; 5 h): 12.5 µg/mL | MIC of the component in combination ([3]; 24 h, GarKS + MP1): 6.3 µg/mL | MIC of the component in combination ([3]; 24 h, K1-EJ + GarKS): 12 µg/mL | MIC of the component in combination ([3]; 24 h, K1-EJ + GarKS + MP1): 1.6 µg/mL | MIC ([3]; 24 h): 51 µg/mL | MIC of the component in combination ([3]; 48 h, GarKS + MP1): 6.5 µg/mL | MIC of the component in combination ([3]; 48 h, K1-EJ + GarKS): 24 µg/mL | MIC of the component in combination ([3]; 48 h, K1-EJ + GarKS + MP1): 3.3 µg/mL | MIC ([3]; 48 h): 100 µg/mL | MIC of the component in combination ([4]; 5 h, GarKS + MP1): 0.73 µg/mL | MIC of the component in combination ([4]; 5 h, K1-EJ + GarKS): 1.5 µg/mL | MIC of the component in combination ([4]; 5 h, K1-EJ + GarKS + MP1): 0.68 µg/mL | MIC ([4]; 5 h): 23.6 µg/mL | MIC of the component in combination ([4]; 24 h, GarKS + MP1): 1.6 µg/mL | MIC of the component in combination ([4]; 24 h, K1-EJ + GarKS): 12 µg/mL | MIC of the component in combination ([4]; 24 h, K1-EJ + GarKS + MP1): 1.6 µg/mL | MIC ([4]; 24 h): 49 µg/mL | MIC of the component in combination ([4]; 48 h, GarKS + MP1): 3.1 µg/mL | MIC of the component in combination ([4]; 48 h, K1-EJ + GarKS): 13 µg/mL | MIC of the component in combination ([4]; 48 h, K1-EJ + GarKS + MP1): 5.8 µg/mL | MIC ([4]; 48 h): 52 µg/mL | MIC of the component in combination ([5]; 5 h, GarKS + MP1): 1.6 µg/mL | MIC of the component in combination ([5]; 5 h, K1-EJ + GarKS): 1.4 µg/mL | MIC of the component in combination ([5]; 5 h, K1-EJ + GarKS + MP1): 0.68 µg/mL | MIC ([5]; 5 h): 3.3 µg/mL | MIC of the component in combination ([5]; 24 h, GarKS + MP1): 25 µg/mL | MIC of the component in combination ([5]; 24 h, K1-EJ + GarKS): 6 µg/mL | MIC of the component in combination ([5]; 24 h, K1-EJ + GarKS + MP1): 3.3 µg/mL | MIC ([5]; 24 h): 13 µg/mL | MIC of the component in combination ([5]; 48 h, GarKS + MP1): 50 µg/mL | MIC of the component in combination ([5]; 48 h, K1-EJ + GarKS): 6.5 µg/mL | MIC of the component in combination ([5]; 48 h, K1-EJ + GarKS + MP1): 5.8 µg/mL | MIC ([5]; 48 h): 26 µg/mL | MIC50 of the component in combination ([6]; garvicin KS + micrococcin P1): 13 µg/mL | MIC50 of the component in combination [6, 12]: 13 µg/mL | MIC50 of the component in combination ([6]; garvicin KS + penicillin G): 50 µg/mL | MIC50 ([6]; individual component): 50 µg/mL | MIC50 of the component in combination ([7]; garvicin KS + micrococcin P1): 13 µg/mL | MIC50 of the component in combination [7, 12]: 3.1 µg/mL | MIC50 of the component in combination ([7]; garvicin KS + penicillin G): 13 µg/mL | MIC50 ([7]; individual component): 25 µg/mL | MIC50 of the component in combination ([8]; garvicin KS + micrococcin P1): 6.3 µg/mL | MIC50 of the component in combination [8, 12]: <0.78 µg/mL | MIC50 of the component in combination ([8]; garvicin KS + penicillin G): <0.78 µg/mL | MIC50 ([8]; individual component): 25 µg/mL | MIC50 of the component in combination ([9]; garvicin KS + micrococcin P1): 1.56 µg/mL | MIC50 of the component in combination [9, 12]: 6.3 µg/mL | MIC50 of the component in combination ([9]; garvicin KS + penicillin G): 25 µg/mL | MIC50 ([9]; individual component): 25 µg/mL | MIC50 of the component in combination ([10]; garvicin KS + micrococcin P1): 0.013 mg/mL | MIC50 of the component in combination [10, 12]: <7.8 × 10^−4. mg/ml | MIC50 of the component in combination ([10]; garvicin KS + penicillin G): <0.00078 mg/mL | MIC50 ([10]; individual component): 25 µg/mL | MIC50 of the component in combination ([11]; garvicin KS + micrococcin P1): 3.13 µg/mL | MIC50 of the component in combination [11, 12]: <0.78 µg/mL | MIC50 of the component in combination ([11]; garvicin KS + penicillin G): <0.78 µg/mL | MIC50 ([11]; individual component): 25 µg/mL
